This is an account of results in publication doi:10.1101/2022.11.04.515179.

One data set deals with GST-OGG1 G245A (human, UniProt O15527 1-345, G245A). The data set can be described thus: EMSA. (Mobility shift assays separate free from complexed probe on a gel.)
The target in another data set is OGG1 WT (untagged) (human, UniProt O15527 1-345). The data set can be described thus: EMSA.
Chain of OGG1 WT (untagged) (O15527 whole entry): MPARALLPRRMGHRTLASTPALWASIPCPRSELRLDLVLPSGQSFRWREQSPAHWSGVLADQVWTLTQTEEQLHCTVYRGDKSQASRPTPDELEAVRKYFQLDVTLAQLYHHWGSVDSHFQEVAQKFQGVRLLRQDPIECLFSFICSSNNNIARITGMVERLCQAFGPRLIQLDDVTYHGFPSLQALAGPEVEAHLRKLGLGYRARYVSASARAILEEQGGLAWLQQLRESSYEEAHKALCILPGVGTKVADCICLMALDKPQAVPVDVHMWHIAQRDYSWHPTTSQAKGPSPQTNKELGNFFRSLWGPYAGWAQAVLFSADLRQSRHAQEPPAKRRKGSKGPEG

Chain of GST-OGG1 G245A (O15527 whole entry G245A): as the sequence (O15527 whole entry) above, with G245A counted along it

B1: Cy5 34-mer 8-oxoG:C (dsDNA)
DNA 1: GGCTTCATCGTTGTCGCAGACCTGGTGGATACCG
DNA 2: CGGTATCCACCAGGTCTGCGACAACGATGAAGCC
modifications: 8-oxoG at position 16 of strand 1
Take B1: the binding result with GST-OGG1 G245A is recorded as “no binding”.

B2: 32P 24-mer 8-oxoG:C (dsDNA)
DNA 1: CTGATCGATGACGCCTGACATGAT
DNA 2: ATCATGTCAGGCGTCATCGATCAG
modifications: 8-oxoG at position 13 of strand 1
As to B2, the binding result with OGG1 WT (untagged) was “binds”.
